The target in the assay is CDK complexes from A. thaliana purified on p13suc1 sepharose beads. Description: cell-based or functional assay.

B1: Purified recombinant FL66 protein (E. coli, FL66pET21d), starting at methionine 11 (protein)
chain: MEVSKATAPSPGVRTRAAKTLALKRLNSSAADSALPNDSSCYLQLRSRRLEKPSSLIEPKQPPRVHRSGIKESGSRSRVDSVNSVPVAQSSNEDECFDNFVSVQVSCGENSLGFESRHSTRESTPCNFVEDMEIMVTPGSSTRSMCRATKEYTREQDNVIPTTSEMEEFFAYAEQQQQRLFMEKYNFDIVNDIPLSGRYEWVQVKP
Consider B1, for which the CDK activity measured using histone H1 as substrate, compared to a control sample without FL66; 10 nM FL66 (% of the control) came out at 82; the CDK activity measured using histone H1 as substrate, compared to a control sample without FL66; 100 nM FL66 (% of the control) worked out at 74; the CDK activity measured using histone H1 as substrate, compared to a control sample without FL66; 1 uM FL66 (% of the control) came to 56; the CDK activity measured using histone H1 as substrate, compared to a control sample without FL66; 10 uM FL66 (% of the control) was found to be 12. Further, the kinase activity of the CDK fraction bound to p13suc1 beads, FL66 added prior to washing of the beads; 0.1 uM FL66 (% of the control) was determined as 81 and the kinase activity of the CDK fraction bound to p13suc1 beads, FL66 added prior to washing of the beads; 10 uM FL66 (% of the control) amounted to 35.

The values are drawn from US7265267.
